Consider three molecules from patent US20250297032A1 (CONCEPT TO MEDICINE BIOTECH, published 2025).

In assay [1] the target is T1, human FAPα-His tag (Sino biological) (human, UniProt Q12884 26-760).
T1 construct: Bought protein; also called human FAPα-His protein; not shown: His tag
T1 sequence (looked up): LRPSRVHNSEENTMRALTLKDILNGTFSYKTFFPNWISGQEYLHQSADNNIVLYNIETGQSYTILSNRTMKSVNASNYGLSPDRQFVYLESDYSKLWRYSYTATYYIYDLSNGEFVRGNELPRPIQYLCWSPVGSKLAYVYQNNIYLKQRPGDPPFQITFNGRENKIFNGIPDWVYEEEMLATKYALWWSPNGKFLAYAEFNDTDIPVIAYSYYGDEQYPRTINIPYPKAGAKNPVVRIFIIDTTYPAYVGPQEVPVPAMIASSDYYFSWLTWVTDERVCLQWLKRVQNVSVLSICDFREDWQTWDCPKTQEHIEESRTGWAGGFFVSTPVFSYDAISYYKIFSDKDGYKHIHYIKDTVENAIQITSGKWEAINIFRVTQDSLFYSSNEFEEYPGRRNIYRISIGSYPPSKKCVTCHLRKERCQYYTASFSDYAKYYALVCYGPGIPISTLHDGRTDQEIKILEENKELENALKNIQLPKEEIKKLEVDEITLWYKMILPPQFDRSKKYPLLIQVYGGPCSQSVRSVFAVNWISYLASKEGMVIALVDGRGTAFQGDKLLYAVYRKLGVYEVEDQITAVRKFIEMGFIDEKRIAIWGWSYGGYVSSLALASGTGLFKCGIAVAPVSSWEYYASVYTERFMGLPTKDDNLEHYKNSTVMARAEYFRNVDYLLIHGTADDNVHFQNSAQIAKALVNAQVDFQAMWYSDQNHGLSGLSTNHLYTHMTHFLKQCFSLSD
Put plainly: ELISA, coated human FAPα-His. How it is done:
Briefly, microtiter plates were coated with human FAPα-His protein at 0.5 ug/ml in PBS, 100 μl/well at 4° C. overnight, then blocked with 150 μl/well of 1% BSA. Three-fold dilutions of tested antibodies starting from 1 μg/ml were added to each well and incubated for 1 hour at 37° C. The plates were washed with PBS/Tween and then incubated with Anti-Human IgG (H&L) (GOAT) Antibody Peroxidase Conjugated for 30 mins at 37° C. After washing, the plates were developed with TMB substrate and analyzed by spectrophotometer at OD 450 nm. […] FAP-4B9 clone from Roche was served as positive control which labeled as FAPα-BMK.

For assay [2], the target named is T2, human FAPα on CHO-K1-hFAPα cells (human, UniProt Q12884 1-760).
T2 construct: whole, on cells; also called cell-surface FAPα
T2 sequence (looked up): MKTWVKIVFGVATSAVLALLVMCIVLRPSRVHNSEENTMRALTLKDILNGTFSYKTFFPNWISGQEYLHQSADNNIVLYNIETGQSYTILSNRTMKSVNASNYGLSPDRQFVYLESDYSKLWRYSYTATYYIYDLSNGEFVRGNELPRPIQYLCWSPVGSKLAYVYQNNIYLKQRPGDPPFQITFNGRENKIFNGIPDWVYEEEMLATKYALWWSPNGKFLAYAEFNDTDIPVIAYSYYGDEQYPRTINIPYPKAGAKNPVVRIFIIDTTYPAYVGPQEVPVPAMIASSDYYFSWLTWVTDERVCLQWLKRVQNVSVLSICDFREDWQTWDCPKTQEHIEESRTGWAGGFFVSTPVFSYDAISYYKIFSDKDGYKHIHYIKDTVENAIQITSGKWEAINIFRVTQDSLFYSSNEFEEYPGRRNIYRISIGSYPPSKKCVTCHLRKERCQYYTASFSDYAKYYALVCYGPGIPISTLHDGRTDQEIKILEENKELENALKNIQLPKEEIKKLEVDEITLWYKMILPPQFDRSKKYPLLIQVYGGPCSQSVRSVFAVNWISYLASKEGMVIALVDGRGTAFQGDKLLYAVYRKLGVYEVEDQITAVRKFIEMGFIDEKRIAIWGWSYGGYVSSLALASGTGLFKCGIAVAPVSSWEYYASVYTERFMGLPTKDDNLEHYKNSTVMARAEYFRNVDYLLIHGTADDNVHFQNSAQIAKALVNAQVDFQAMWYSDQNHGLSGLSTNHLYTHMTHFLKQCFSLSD
Put plainly: flow cytometry on CHO-K1-hFAPα cells. How it is done:
(§1) To evaluate the cell-based binding property to human FAPα, the tested antibodies were analyzed for their binding to CHO-K1-hFAPα by FACS. A total number of 1×10⁵ CHO-K1-hFAPα cells in each well were incubated with 4-fold serial diluted antibodies starting from 3 μg/ml for 30 minutes at 4° C. in FACS buffer. After wash by FACS buffer, PE conjugated-anti-human IgG antibody was added to each well and incubated at 4° C. for 30 minutes. After wash, MFI of PE was evaluated by MACSQuant Analyzer 16.
(In general: In flow cytometry, cells or beads pass a laser one at a time.)

Assay [3] addresses T2, human FAPα on CHO-K1-hFAPα cells. Put plainly: flow cytometry on CHO-K1-hFAPα cells (MFI of PE). More on the design: unit not given beside the values. How it is done:
as §1

Assay [4] deals with T1, human FAPα-His tag (Sino biological). Put plainly: competitive ELISA on coated human FAPα; competitor (detected): FAP-G14-Bio. How it is done:
(§2) Competitive ELISA was carried out to classify the FAPα mAbs based on the binding epitope to human FAPα.
(§3) Briefly, microtiter plates were coated with human FAPα proteins at 0.5 μg/ml in PBS, 100 μl/well at 4° C. overnight, then blocked with 150 μl/well of 1% BSA. Serial dilutions of chimeric antibodies as well as biotin-conjugated reference mAb were added to each well and incubated for 1 hour at RT. The plates were washed with PBS/Tween and then incubate with streptavidin-HRP for 15 mins at RT. After washing, the plates were developed with TMB substrate and analyzed by spectrophotometer at OD 450 nm. According to the competition ability to reference mAbs (Benchmark, or “BMK”), all tested FAPα mAbs binds to the similar epitope as shown in Table 5.

Assay [5] shares this target. The assay can be described thus: competitive ELISA on coated human FAPα; competitor (detected): FAP-G52-Bio. How it is done: as §3
Assay [6] shares this target. The assay can be described thus: competitive ELISA on coated human FAPα; competitor (detected): FAP-I30-Bio. How it is done:
as §3

Assay [7] shares this target. The assay can be described thus: competitive ELISA on coated human FAPα; competitor (detected): FAP-I37-Bio. How it is done: as §2, §3
A general note: An ELISA detects its analyte on a solid surface through an enzyme-linked reagent.

The target is the same in assay [8]. Put plainly: competitive ELISA on coated human FAPα; competitor (detected): FAP-I38-Bio. How it is done:
as §3

For assay [9] the target is unchanged. The assay can be described thus: competitive ELISA on coated human FAPα; competitor (detected): FAP-J40-Bio. How it is done:
as §3

Assay [10] shares this target. Put plainly: SPR (Biacore T200), mAb captured on Protein A chip, human FAPα-His as analyte. How it is done: The binding of the tested antibodies to recombinant FAPα protein (human FAPα-his tag) was tested with Biacore using a capture method. The mAbs were captured using Protein A chip. A serial dilution of human FAPα-his tag protein was injected over captured antibody for 3 mins at a flow rate of 30 μl/min. The antigen was allowed to dissociate for 800s. All the experiments were carried out on a Biacore T200. Data analysis was carried out using the Biacore T200 evaluation software.
On the technique in general: SPR reads the build-up and loss of mass on a sensor chip optically.

Assay [11] has the same target. Put plainly: competitive ELISA on coated human FAPα; competitor (detected): FAPα (BMK)-Bio. How it is done: as §3
Assay [12] has the same target. The assay can be described thus: competitive ELISA on coated human FAPα; biotinylated mAb alone, no competing Ab (row '0'). How it is done: as §3
The target of another assay is T3, mouse FAPα-His protein (mouse, UniProt P97321 26-761, limits assumed).
T3 construct: not shown: His tag
T3 sequence (looked up): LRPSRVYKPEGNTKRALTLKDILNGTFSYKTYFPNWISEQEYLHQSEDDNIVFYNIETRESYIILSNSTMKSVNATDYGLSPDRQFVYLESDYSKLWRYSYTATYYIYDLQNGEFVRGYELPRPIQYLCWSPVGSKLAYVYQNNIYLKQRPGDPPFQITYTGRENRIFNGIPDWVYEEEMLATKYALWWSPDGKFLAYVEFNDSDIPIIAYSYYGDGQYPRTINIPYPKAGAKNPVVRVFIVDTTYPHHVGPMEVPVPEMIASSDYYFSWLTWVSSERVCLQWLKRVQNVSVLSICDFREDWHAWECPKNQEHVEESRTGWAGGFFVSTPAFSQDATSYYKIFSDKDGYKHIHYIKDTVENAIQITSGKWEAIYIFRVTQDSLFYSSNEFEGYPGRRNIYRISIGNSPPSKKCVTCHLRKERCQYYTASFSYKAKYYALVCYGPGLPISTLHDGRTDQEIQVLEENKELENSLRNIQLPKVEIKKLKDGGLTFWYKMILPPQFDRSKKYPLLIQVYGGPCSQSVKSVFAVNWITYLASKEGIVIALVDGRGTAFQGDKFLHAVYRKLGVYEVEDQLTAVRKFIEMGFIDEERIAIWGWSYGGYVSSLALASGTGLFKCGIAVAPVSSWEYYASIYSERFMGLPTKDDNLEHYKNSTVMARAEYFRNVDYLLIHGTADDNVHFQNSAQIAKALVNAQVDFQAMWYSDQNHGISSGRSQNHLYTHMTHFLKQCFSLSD
Put plainly: ELISA, plate coated with mouse FAPα-His, anti-human IgG-HRP, OD 450 nm. How it is done:
Briefly, microtiter plates were coated with mouse FAPα-His protein at 0.5 ug/ml in PBS, 100 μl/well at 4° C. overnight, then blocked with 150 μl/well of 1% BSA. Three-fold dilutions of tested antibodies starting from 1 μg/ml were added to each well and incubated for 1 hour at 37° C. The plates were washed with PBS/Tween and then incubated with Anti-Human IgG (H&L) (GOAT) Antibody Peroxidase Conjugated for 30 mins at 37° C. After washing, the plates were developed with TMB substrate and analyzed by spectrophotometer at OD 450 nm.

B1: I38 (antibody, V domains shown)
VH: EVQLVQSGAEVKEPGVSVKVSCKASGYTFASYGLSWVRLAPGQGLQWMGWISPYTPNPIYAPNFRDKVILTTDRSTNTAYLEVRSLRSDDTGLYYCARNHWVGRPTRAFDLWGQGTMVTVSA
VL: EIVLTQSPGTLSLSPGERATLSCRASQTVSITHLAWYQQKPGQAPRLLTYGASARATGIPDRFSVSGSGTDFTLTITRLEPEDFAVYYCQHYGSSITFGGGTKVEIK
notes: Tested as a mAb; also called FAP-I38
As a reminder, the EC50 is the concentration needed to bring the measured effect to its halfway point. The term Kd denotes the concentration at which binding is half-saturated. The koff is a measure of how fast the partners let go of each other. By kon is commonly meant the rate constant with which the complex forms. With B1, the values for the concentration for a half-maximal effect (EC50) in assay [1] and in [2] were 4.89 ng/mL and 0.026 ng/mL, respectively. The Cmax in [3] came out at 189. Moreover, the “OD 450 nm” value in [4] came to 0.149 OD 450 nm; in assay [5], 0.176 OD 450 nm; in assay [6], 0.22 OD 450 nm; in [7], 0.282 OD 450 nm; in [8] it was 0.396 OD 450 nm; in assay [9] it was 0.226 OD 450 nm. The “OD 450 nm” value is 0.154 OD 450 nm in assay [11] and 1.21 OD 450 nm in [12]. For the same molecule, in assay [10], the Kd is 1.12 nM. In addition, the off-rate constant (koff) in assay [10] is 0.000116 s⁻¹. For the same molecule, the association rate constant (kon) in assay [10] came out at 103000 M⁻¹ s⁻¹.

B2: J59 (antibody, V domains shown)
VH: QVQLLESGGGVVQPGRSLRLSCAASGFTFSSYGMHWVRQAPGKGLEWVAVISYDGSNKYYADSVKGRFTISRDNSKNTLYLQMNSLRADDTAVYYCARESYTGLGSFLHWGQGTLVTVSA
VL: NIQLTQSPSSLSASVGDRVTITCRASQTISNYLNWYQQKPGKAPKLLISAASSLQGGVPSRFSGSGSGTDFTLAISSLQPEDSATYYCQYWGTFGQGTKLEIK
notes: Tested as a mAb
In the case of B2, in [1], the EC50 turned out to be 3.94 ng/mL. The EC50 in assay [2] was determined as 0.029 ng/mL. The Cmax in assay [3] was found to be 149. In [10], this molecule gave a dissociation constant Kd of 1.78 nM, an off-rate constant (koff) of 0.000594 s⁻¹ and an association rate constant (kon) of 333000 M⁻¹ s⁻¹. For the same molecule, the binding result in the assay with mouse FAPα-His protein is listed as “no binding (tested: 1000 ng/ml)”.

B3: G52 (antibody, V domains shown)
VH: EVQLLESGGDLVQPGGSLRLSCAASGFTFSSYAMSWVRQAPGKGLEWVSGISNGGDSIAYADSVKGRFTVFRDNAKNTLYLQMNSLRAEDTAIYYCARGNYYAHDDWGQGTLVTVSA
VL: DIQLTQSPSSVSASVGDRVTITCRASQGVGSWLAWYQQKPGKPPKLLIYAASSLQSGVPSRFSGSGSGTDFTLTISSLQPEDFATYYCQQANSFPLTFGGGTKVEIK
notes: Tested as a mAb; also called FAP-G52; FAP-G52-Bio (biotin-conjugated form)
On to B3, for which the EC50 in [1] is 9.48 ng/mL. Also, the “OD 450 nm” value in assay [4] came to 0.358 OD 450 nm; in assay [5], 0.283 OD 450 nm; in assay [6] it was 0.302 OD 450 nm; in assay [7], 0.399 OD 450 nm; in assay [8], 0.466 OD 450 nm; in [9], 0.298 OD 450 nm. For the same molecule, the “OD 450 nm” value came out at 0.304 OD 450 nm in assay [11] and 1.26 OD 450 nm in [12]. For the same molecule, binding in assay [10] was characterised by a dissociation constant (Kd) of 0.446 nM. In assay [10], this molecule registered a koff of 1.81e-05 s⁻¹. Also, the kon in assay [10] amounted to 40500 M⁻¹ s⁻¹. In the assay with mouse FAPα-His protein, the binding result is “no binding (tested: 1000 ng/ml)”.
